Reference: patent US20150361165A1 (SYDDANSK UNIVERSITET, published 2015)

Key:
[1] = molecular target: T1, human MFAP4 in tissue (human mammary artery) (human, UniProt P55083 22-255); assay: immunohistochemistry on human mammary artery
T1 construct: Native protein detected by immunohistochemistry
T1 sequence (looked up): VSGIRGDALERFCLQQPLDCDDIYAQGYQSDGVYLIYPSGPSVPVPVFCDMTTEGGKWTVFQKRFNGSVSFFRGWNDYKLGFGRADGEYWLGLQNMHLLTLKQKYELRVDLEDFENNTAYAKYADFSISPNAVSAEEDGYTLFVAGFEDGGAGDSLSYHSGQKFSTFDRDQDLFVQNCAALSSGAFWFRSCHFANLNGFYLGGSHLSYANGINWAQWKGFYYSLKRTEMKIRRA

[2] = molecular target: T2, mouse MFAP4 in tissue (mouse aorta) (mouse, UniProt Q9D1H9 23-257); assay: immunohistochemistry on mouse aorta; no signal in mfap4-/- tissue
T2 construct: Native protein detected by immunohistochemistry; signal absent in mfap4-/- tissue; also called mouse MFAP4 homologue
T2 sequence (looked up): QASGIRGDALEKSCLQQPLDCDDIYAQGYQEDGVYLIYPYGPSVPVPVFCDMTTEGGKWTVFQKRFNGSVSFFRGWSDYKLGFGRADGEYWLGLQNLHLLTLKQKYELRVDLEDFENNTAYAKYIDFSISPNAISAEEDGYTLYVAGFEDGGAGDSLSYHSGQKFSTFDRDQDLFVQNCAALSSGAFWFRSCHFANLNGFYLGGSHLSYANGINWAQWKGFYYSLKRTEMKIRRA

B1: HG-HYB 7-14 (antibody, V domains shown)
VH: EVKVVESGGGLVQPGGSLRLSCATSGFTFSDFYMEWVRQPPGKRLEWIAASRNKANDYTTEYSASVKGRFIVSRDTSQSILYLQLNALRAEDTAIYYCARNYYDSSYWYFDVWGAGTTVTVSS
VL: DIVLTQSPSYLAASPGETITINCRASKSISKYLAWYQERPGKTNKLLIYSGSTLQSGIPSRFSGSGSGTDFTLTISSLEPEDFAMYYCQQHNEYPFTFGAGTKLELK
notes: Monoclonal antibody raised in MFAP4-deficient C57BL/6N mice against rMFAP4; also called FITC-anti-MFAP4 (HG-HYB 7-14)
**Q.** Which results are given for B1?
**A.** binding result [1]: binds; binding result [2]: binds
